Assay results published in publication PMC10790703 (mBio, 2023).

Target: T1, ubiquitin E3 ligase TRIM59 (human (endogenous in 293T), UniProt Q8IWR1 1-403)
T1 construct: TRIM59, ubiquitin E3 ligase primarily located in the ER, in 293T cells
T1 sequence (looked up): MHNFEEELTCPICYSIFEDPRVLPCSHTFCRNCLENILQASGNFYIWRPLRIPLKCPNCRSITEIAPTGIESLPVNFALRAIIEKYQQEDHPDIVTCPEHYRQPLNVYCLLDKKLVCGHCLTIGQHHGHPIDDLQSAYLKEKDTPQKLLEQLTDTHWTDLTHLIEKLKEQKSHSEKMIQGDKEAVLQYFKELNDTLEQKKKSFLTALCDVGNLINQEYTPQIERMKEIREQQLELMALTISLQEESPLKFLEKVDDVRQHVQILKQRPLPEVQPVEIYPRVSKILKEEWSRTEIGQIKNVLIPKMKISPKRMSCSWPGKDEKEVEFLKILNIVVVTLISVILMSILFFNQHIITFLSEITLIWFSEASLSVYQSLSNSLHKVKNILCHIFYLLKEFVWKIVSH
Experiment: co-IP
Details: partners not purified

B1: SARS-CoV-2 ORF3a dG188 mutant, HA-tagged (natural protein)
chain: MDLFMRIFTIGTVTLKQGEIKDATPSDFVRATATIPIQASLPFGWLIVGVALLAVFQSASKIITLKKRWQLALSKGVHFVCNLLLLFVTVYSHLLLVAAGLEAPFLYLYALVYFLQSINFVRIIMRLWLCWKCRSKNPLLYDANYFLCWHTNCYDYCIPYNSVTSSIVITSGDGTTSPISEHDYQIGYTEKWESGVKDCVVLHSYFTSDYYQLYSTQLSTDTGVEHVTFFIYNKIVDEPEEHVQIHTIDGSSGVVNPVMEPIYDEPTTTTSVPL
notes: also called G188 deletion mutant; E-ORF3a (represented by the dG188 mutant); not shown: HA, C-terminal, kept
For B1, the “fold of pulled-down ORF3a against WT ORF3a (densitometry)” value was about 1.5 fold.
